The text below walks through data of the supplement of paper PMC7877785.

± gives the uncertainty stated by the source.

The data set in a line: self-splicing fitness, log relative to wild type (ln ratio); higher = more splicing; Tetrahymena group I intron in knt gene, E. coli kanamycin selection, DiMSum; sequences stand for … in CUCUCU…GGAGGGAAAAGUUAUCAGGCAUGCACCUGGUAGCUAGUCUUUAAACCAAUAGAUUGCAUCGGUUUAAAAGGCAAGACCGUCAAAUUGCGGGAAAGGGGUCAACAGCCGUUCAGUACCAAGUCUCAGGGGAAACUUUGAGAUGGCCUUGCAAAGGGUAUGGUAAUAAGCUGACGGACAUGGUCCUAACCACGCAGCCAAGUCCUAAGUCAACAGAUCUUCUGUUGAUAUGGAUGCAGUUCACAGACUAAAUGUCGGUCGGGGAAGAUGUAUUCUUCUCAUAAGAUAUAGUCGGACCUCUCCUUAAUGGGAGCUAGCGGAUGAAGUGAUGCAACACUGGAGCCGCUGGGAACUAAUUUGUAUGCGAAAGUAUAUUGAUUAGUUUUGGAGUACUCGUGGUCG
The essentials: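 The eight P1ex-region nucleotides of an intron in the knt kanamycin-resistance gene on pET-22b(+) were all randomised and the library put into E. coli BL21(DE3). Six replicate transformations were grown overnight at 37°C or 30°C on LB agar with or without 25 μg/mL kanamycin, together with 100 μg/mL carbenicillin, 50 μM IPTG and 0.2% rhamnose. Colonies were pooled and amplicon-sequenced on an Illumina HiSeq 2500. Fitness from DiMSum is the error-weighted combination of wild-type-normalised replicate fold changes, kanamycin over none.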

As for UCGAAGCAAUAUUACGUAUA, the “self-splicing fitness (ln)” value is -3.1 ± 0.22 (30 °C) and -1.58 ± 0.18 (37 °C). For GUACAGCAAUAUUACGGUUU, in that order: -0.599 ± 0.044 and -0.0338 ± 0.06. For CCACAGCAAUAUUACGCAAA, in that order: -2.03 ± 0.22 and -3.24 ± 0.32. For AUGGAGCAAUAUUACGCGUU the same measures were -3.93 ± 0.21 and -3.05 ± 0.24. For GGGUAGCAAUAUUACGGCCU, the “self-splicing fitness (ln)” value was -3.57 ± 0.38 (30 °C) and -2.14 ± 0.46 (37 °C). As to GUAAAGCAAUAUUACGGGAA, the “self-splicing fitness (ln)” value by setting is: (30 °C) -2.36 ± 0.11; (37 °C) -0.287 ± 0.12. For CUCAAGCAAUAUUACGUCUA the same measures were -3.15 ± 0.16 and -2.07 ± 0.14.

Regarding UAUGAGCAAUAUUACGCUCU, the “self-splicing fitness (ln)” value (30 °C) was -3.16 ± 0.41.

On to UUCCAGCAAUAUUACGUUAA, for which the “self-splicing fitness (ln)” value (30 °C) was -1.16 ± 0.079 and the “self-splicing fitness (ln)” value (37 °C) turned out to be 0.606 ± 0.093.

As for AUUGAGCAAUAUUACGAAAA, under “30 °C”, the “self-splicing fitness (ln)” value was -2.45 ± 0.41. On to GCAAAGCAAUAUUACGAUAU, for which the “self-splicing fitness (ln)” value is -1.41 ± 0.075 (30 °C) and 0.42 ± 0.082 (37 °C). Take GUAAAGCAAUAUUACGAGCU: the “self-splicing fitness (ln)” value (30 °C) is -1.4 ± 0.13 and the “self-splicing fitness (ln)” value (37 °C) is -0.306 ± 0.18. For UUACAGCAAUAUUACGCGCC the same measures were -2.36 ± 0.14 and -0.896 ± 0.2. For UGCGAGCAAUAUUACGCCUU, the “self-splicing fitness (ln)” value (37 °C) is -1.7 ± 0.38.

Consider UAGUAGCAAUAUUACGCUAG, for which the “self-splicing fitness (ln)” value runs as follows: (30 °C) -1.09 ± 0.23; (37 °C) 0.812 ± 0.24. For the sequence UCGCAGCAAUAUUACGAGGC, the “self-splicing fitness (ln)” value was -3.12 ± 0.24 (30 °C) and -3.16 ± 0.26 (37 °C). As to UUUGAGCAAUAUUACGCCGA, the “self-splicing fitness (ln)” value by setting is: (30 °C) -2.3 ± 0.42; (37 °C) -1.61 ± 0.41. For CGCAAGCAAUAUUACGUGUG, in that order: -4.31 ± 0.14 and -2.56 ± 0.11. In the case of AGUCAGCAAUAUUACGCUGU, the “self-splicing fitness (ln)” value by setting is: (30 °C) -4.12 ± 0.34; (37 °C) -2.73 ± 0.22. Consider ACAAAGCAAUAUUACGGAUG, for which the “self-splicing fitness (ln)” value runs as follows: (30 °C) -1.59 ± 0.087; (37 °C) -1.08 ± 0.1.

As to CGAGAGCAAUAUUACGUAGC, the “self-splicing fitness (ln)” value by setting is: (30 °C) -4.39 ± 0.42; (37 °C) -2.52 ± 0.27. For GAUGAGCAAUAUUACGUGAC the same measures were -3.05 ± 0.34 and -2.3 ± 0.42. CCGUAGCAAUAUUACGGGCA: the “self-splicing fitness (ln)” value by setting is: (30 °C) -3.76 ± 0.42; (37 °C) -2.14 ± 0.23.

Turning to CGCCAGCAAUAUUACGUCAC, the “self-splicing fitness (ln)” value is -3.7 ± 0.24 (30 °C) and -2 ± 0.24 (37 °C).

On to CCAAAGCAAUAUUACGUGGG, for which the “self-splicing fitness (ln)” value was -2.85 ± 0.12 (30 °C) and -2.9 ± 0.17 (37 °C).

As to GUCCAGCAAUAUUACGCUGC, the “self-splicing fitness (ln)” value was -1.85 ± 0.34 (30 °C) and 0.221 ± 0.36 (37 °C). For AGCCAGCAAUAUUACGUUUA the same measures were -2.7 ± 0.35 and -2.48 ± 0.38.

As to GAAAAGCAAUAUUACGUAAA, the “self-splicing fitness (ln)” value runs as follows: (30 °C) -2.4 ± 0.13; (37 °C) -0.992 ± 0.14. Regarding GCCUAGCAAUAUUACGGGUU, the “self-splicing fitness (ln)” value (30 °C) was -2.93 ± 0.12 and the “self-splicing fitness (ln)” value (37 °C) is -2.02 ± 0.13. As for ACCCAGCAAUAUUACGCGCA, the “self-splicing fitness (ln)” value is -0.821 ± 0.061 (30 °C) and -0.299 ± 0.075 (37 °C). For CCCGAGCAAUAUUACGCUUA, in that order: -3.88 ± 0.3 and -2.82 ± 0.33. For AGUUAGCAAUAUUACGGUCG, in that order: -0.622 ± 0.094 and -0.715 ± 0.14. For UUGAAGCAAUAUUACGCACU the same measures were -0.156 ± 0.091 and 0.362 ± 0.1. On to CGAUAGCAAUAUUACGACUA, for which the “self-splicing fitness (ln)” value (30 °C) was -1.8 ± 0.26 and the “self-splicing fitness (ln)” value (37 °C) is -2.13 ± 0.23. For AGUUAGCAAUAUUACGCAAA, the “self-splicing fitness (ln)” value (37 °C) was -1.57 ± 0.29.

Regarding GGGAAGCAAUAUUACGCCGU, the “self-splicing fitness (ln)” value (30 °C) was -0.357 ± 0.36 and the “self-splicing fitness (ln)” value (37 °C) was -0.232 ± 0.31. In the case of AGUCAGCAAUAUUACGUUGA, the “self-splicing fitness (ln)” value (37 °C) is -3.49 ± 0.31. Regarding GGCUAGCAAUAUUACGUACC, the “self-splicing fitness (ln)” value is -0.292 ± 0.21 (30 °C) and 0.368 ± 0.23 (37 °C).

Consider GAUCAGCAAUAUUACGGGAU, for which the “self-splicing fitness (ln)” value is, setting by setting: (30 °C) -3.01 ± 0.12; (37 °C) -1.18 ± 0.11. For UUCCAGCAAUAUUACGGCGA the same measures were -0.331 ± 0.076 and -0.0354 ± 0.097.

As to UCCCAGCAAUAUUACGCGAC, the “self-splicing fitness (ln)” value by setting is: (30 °C) -4.31 ± 0.29; (37 °C) -3.36 ± 0.31. On to CAACAGCAAUAUUACGAGAC, for which the “self-splicing fitness (ln)” value reads like this: (30 °C) -2.57 ± 0.11; (37 °C) -2.22 ± 0.14. Turning to GGCAAGCAAUAUUACGCAGC, under “37 °C”, the “self-splicing fitness (ln)” value is -2.27 ± 0.28. Turning to GUUUAGCAAUAUUACGCUCC, the “self-splicing fitness (ln)” value runs as follows: (30 °C) -1.82 ± 0.37; (37 °C) 1.01 ± 0.34. With GCUGAGCAAUAUUACGUAUG, the “self-splicing fitness (ln)” value is, setting by setting: (30 °C) -3.21 ± 0.16; (37 °C) -2.61 ± 0.33. Regarding UGCAAGCAAUAUUACGCCCC, the “self-splicing fitness (ln)” value is, setting by setting: (30 °C) -0.548 ± 0.19; (37 °C) -0.556 ± 0.32. For GUAGAGCAAUAUUACGUCCA the same measures were -2.45 ± 0.28 and -0.739 ± 0.34. As for UGUUAGCAAUAUUACGUACA, the “self-splicing fitness (ln)” value runs as follows: (30 °C) -0.999 ± 0.11; (37 °C) 0.16 ± 0.13. For GGUUAGCAAUAUUACGAUGC, in that order: -0.237 ± 0.13 and -0.251 ± 0.16. As to AGGUAGCAAUAUUACGCGGU, the “self-splicing fitness (ln)” value is -3.312 ± 0.024 (30 °C) and -2.14 ± 0.037 (37 °C). Consider GCCGAGCAAUAUUACGCCGC, for which the “self-splicing fitness (ln)” value (30 °C) is -3.95 ± 0.43. For AAAUAGCAAUAUUACGUCAA, the “self-splicing fitness (ln)” value reads like this: (30 °C) -2.07 ± 0.17; (37 °C) -1.8 ± 0.18. UUCCAGCAAUAUUACGCGGC: the “self-splicing fitness (ln)” value is -3.73 ± 0.47 (30 °C) and -1.38 ± 0.4 (37 °C). For AAGAAGCAAUAUUACGUAUG, in that order: -1.93 ± 0.11 and -1.14 ± 0.1.

Turning to AUGCAGCAAUAUUACGAAAG, the “self-splicing fitness (ln)” value is, setting by setting: (30 °C) -2.87 ± 0.23; (37 °C) -3.15 ± 0.4. For GGUGAGCAAUAUUACGCUAU the same measures were -1.77 ± 0.32 and -2.94 ± 0.4. For CGUUAGCAAUAUUACGGGCC the same measures were -1.91 ± 0.18 and -1.75 ± 0.24. For CUCGAGCAAUAUUACGCGUA, in that order: -2.97 ± 0.48 and -1.59 ± 0.23.

For the sequence CAAUAGCAAUAUUACGGAUC, where the note is “30 °C”, the “self-splicing fitness (ln)” value is -3.15 ± 0.37. On to UGUAAGCAAUAUUACGAACC, for which the “self-splicing fitness (ln)” value is -0.477 ± 0.22 (30 °C) and 0.667 ± 0.32 (37 °C).

As to AGUCAGCAAUAUUACGCUCA, the “self-splicing fitness (ln)” value runs as follows: (30 °C) -0.675 ± 0.095; (37 °C) -0.791 ± 0.12. Take GCCGAGCAAUAUUACGCUUG: the “self-splicing fitness (ln)” value is -3.71 ± 0.23 (30 °C) and -2.78 ± 0.24 (37 °C). For AUAUAGCAAUAUUACGAGCG, the “self-splicing fitness (ln)” value (30 °C) was -2.19 ± 0.17 and the “self-splicing fitness (ln)” value (37 °C) was -0.66 ± 0.16.

Consider CGGAAGCAAUAUUACGCUGC, for which the “self-splicing fitness (ln)” value by setting is: (30 °C) -2.35 ± 0.41; (37 °C) -1.78 ± 0.2. For UAUGAGCAAUAUUACGAAUG, in that order: -2.49 ± 0.17 and -1.28 ± 0.18. Take UUCCAGCAAUAUUACGGCGU: the “self-splicing fitness (ln)” value is, setting by setting: (30 °C) -1.42 ± 0.079; (37 °C) -1.19 ± 0.091. On to CCCAAGCAAUAUUACGGUAU, for which the “self-splicing fitness (ln)” value by setting is: (30 °C) -4.33 ± 0.23; (37 °C) -2.51 ± 0.21. For CAGGAGCAAUAUUACGUGUU the same measures were -3.24 ± 0.17 and -2.55 ± 0.27. For CCACAGCAAUAUUACGCUCG the same measures were -1.34 ± 0.077 and -0.135 ± 0.088. Take UCUUAGCAAUAUUACGAUGA: the “self-splicing fitness (ln)” value was -0.467 ± 0.082 (30 °C) and 0.223 ± 0.084 (37 °C). For CGCAAGCAAUAUUACGCCUG the same measures were -1.96 ± 0.13 and -2.52 ± 0.23.

With UGGUAGCAAUAUUACGAUUC, the “self-splicing fitness (ln)” value (30 °C) is -2.63 ± 0.24 and the “self-splicing fitness (ln)” value (37 °C) was -2.05 ± 0.26.

For the sequence AUUAAGCAAUAUUACGACGG, the “self-splicing fitness (ln)” value by setting is: (30 °C) -2.32 ± 0.23; (37 °C) -2.54 ± 0.41. For UAGCAGCAAUAUUACGUUGG, in that order: -2.36 ± 0.089 and -2.22 ± 0.12. For UGACAGCAAUAUUACGCCGG the same measures were -0.618 ± 0.12 and -0.791 ± 0.15. For UCGAAGCAAUAUUACGAAGG, in that order: -1.84 ± 0.21 and -2.47 ± 0.33.

With GAGGAGCAAUAUUACGACGG, the “self-splicing fitness (ln)” value was -3.25 ± 0.3 (30 °C) and -2.07 ± 0.31 (37 °C).
